The text below walks through data of article PMC10786891, “Massively parallel profiling of RNA-targeting CRISPR-Cas13d”.

T1: EsCas13d, nuclease-dead (Eubacterium siraeum, UniProt B0MS50, R295A;H300A;R849A;H854A)
T1 sequence: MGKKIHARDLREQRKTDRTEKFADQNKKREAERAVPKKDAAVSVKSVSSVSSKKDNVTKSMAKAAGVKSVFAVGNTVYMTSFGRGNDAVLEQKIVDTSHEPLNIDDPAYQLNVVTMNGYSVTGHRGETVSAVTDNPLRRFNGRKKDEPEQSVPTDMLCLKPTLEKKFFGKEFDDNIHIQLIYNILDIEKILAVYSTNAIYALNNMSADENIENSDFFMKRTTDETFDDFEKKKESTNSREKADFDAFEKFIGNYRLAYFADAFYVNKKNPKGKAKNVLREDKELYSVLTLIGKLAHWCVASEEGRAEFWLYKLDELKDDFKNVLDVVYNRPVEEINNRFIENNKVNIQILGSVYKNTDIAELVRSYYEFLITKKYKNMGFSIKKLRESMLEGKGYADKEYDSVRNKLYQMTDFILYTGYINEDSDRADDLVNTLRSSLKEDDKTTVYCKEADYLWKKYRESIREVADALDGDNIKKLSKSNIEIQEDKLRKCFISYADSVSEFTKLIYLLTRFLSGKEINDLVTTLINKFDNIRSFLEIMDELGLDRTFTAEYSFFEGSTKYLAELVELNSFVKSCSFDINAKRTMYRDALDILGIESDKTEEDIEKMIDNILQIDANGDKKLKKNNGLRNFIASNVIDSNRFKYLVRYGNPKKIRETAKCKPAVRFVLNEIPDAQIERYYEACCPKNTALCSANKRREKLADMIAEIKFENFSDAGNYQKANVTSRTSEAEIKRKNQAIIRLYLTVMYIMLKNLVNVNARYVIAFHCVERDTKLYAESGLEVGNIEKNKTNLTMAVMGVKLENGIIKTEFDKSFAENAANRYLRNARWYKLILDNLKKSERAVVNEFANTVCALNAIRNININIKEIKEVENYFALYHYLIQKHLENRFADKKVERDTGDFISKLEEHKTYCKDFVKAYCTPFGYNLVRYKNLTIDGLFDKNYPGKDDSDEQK

B1: target 1 C7A,U11C (mixed)
RNA 1: CACCCGUGCAAAAAUGCAGGGGUCUAAAACUGAGCGGAUAACCUCUCUAUGG
RNA 2: GGGAAUGGAUCCACAUCUACGAAUUCGUACCAUAGAGAGGCUAUACGCUCACCGAGAUCGGAAGAGCACACGU
B2: target 1 insU 3' of 18,insG 3' of 14 (mixed)
RNA 1: CACCCGUGCAAAAAUGCAGGGGUCUAAAACUGAGCGGAUAACCUCUCUAUGG
RNA 2: GGGAAUGGAUCCACAUCUACGAAUUCGUACCAUAUGAGAGGGUUAUCCGCUCACCGAGAUCGGAAGAGCACACGU
B3: target 1 C4U,A9U (mixed)
RNA 1: CACCCGUGCAAAAAUGCAGGGGUCUAAAACUGAGCGGAUAACCUCUCUAUGG
RNA 2: GGGAAUGGAUCCACAUCUACGAAUUCGUACCAUAGAGAGGUUUUCCGUUCACCGAGAUCGGAAGAGCACACGU
B4: target 1 insA 3' of 10,insG 3' of 2 (mixed)
RNA 1: CACCCGUGCAAAAAUGCAGGGGUCUAAAACUGAGCGGAUAACCUCUCUAUGG
RNA 2: GGGAAUGGAUCCACAUCUACGAAUUCGUACCAUAGAGAGGUUAAUCCGCUCGACCGAGAUCGGAAGAGCACACGU
B5: target 1 insU 3' of 12,insC 3' of 10 (mixed)
RNA 1: CACCCGUGCAAAAAUGCAGGGGUCUAAAACUGAGCGGAUAACCUCUCUAUGG
RNA 2: GGGAAUGGAUCCACAUCUACGAAUUCGUACCAUAGAGAGGUUUCAUCCGCUCACCGAGAUCGGAAGAGCACACGU
B6: target 1 insU 3' of 7,insC 3' of 1 (mixed)
RNA 1: CACCCGUGCAAAAAUGCAGGGGUCUAAAACUGAGCGGAUAACCUCUCUAUGG
RNA 2: GGGAAUGGAUCCACAUCUACGAAUUCGUACCAUAGAGAGGUUAUCUCGCUCACCCGAGAUCGGAAGAGCACACGU
B7: target 1 insU 3' of 7,insU 3' of 5 (mixed)
RNA 1: CACCCGUGCAAAAAUGCAGGGGUCUAAAACUGAGCGGAUAACCUCUCUAUGG
RNA 2: GGGAAUGGAUCCACAUCUACGAAUUCGUACCAUAGAGAGGUUAUCUCGUCUCACCGAGAUCGGAAGAGCACACGU
B8: target 1 insU 3' of 13,insC 3' of 13 (mixed)
RNA 1: CACCCGUGCAAAAAUGCAGGGGUCUAAAACUGAGCGGAUAACCUCUCUAUGG
RNA 2: GGGAAUGGAUCCACAUCUACGAAUUCGUACCAUAGAGAGUCGUUAUCCGCUCACCGAGAUCGGAAGAGCACACGU
B9: target 1 G13U,C22A (mixed)
RNA 1: CACCCGUGCAAAAAUGCAGGGGUCUAAAACUGAGCGGAUAACCUCUCUAUGG
RNA 2: GGGAAUGGAUCCACAUCUACGAAUUCGUAACAUAGAGAUGUUAUCCGCUCACCGAGAUCGGAAGAGCACACGU
B10: target 1 G5C,A9G (mixed)
RNA 1: CACCCGUGCAAAAAUGCAGGGGUCUAAAACUGAGCGGAUAACCUCUCUAUGG
RNA 2: GGGAAUGGAUCCACAUCUACGAAUUCGUACCAUAGAGAGGUUGUCCCCUCACCGAGAUCGGAAGAGCACACGU
B11: target 1 U8C,A14G (mixed)
RNA 1: CACCCGUGCAAAAAUGCAGGGGUCUAAAACUGAGCGGAUAACCUCUCUAUGG
RNA 2: GGGAAUGGAUCCACAUCUACGAAUUCGUACCAUAGAGGGGUUACCCGCUCACCGAGAUCGGAAGAGCACACGU
B12: target 1 insU 3' of 20,insU 3' of 9 (mixed)
RNA 1: CACCCGUGCAAAAAUGCAGGGGUCUAAAACUGAGCGGAUAACCUCUCUAUGG
RNA 2: GGGAAUGGAUCCACAUCUACGAAUUCGUACCAUUAGAGAGGUUAUUCCGCUCACCGAGAUCGGAAGAGCACACGU
B13: target 1 C4A,C7U (mixed)
RNA 1: CACCCGUGCAAAAAUGCAGGGGUCUAAAACUGAGCGGAUAACCUCUCUAUGG
RNA 2: GGGAAUGGAUCCACAUCUACGAAUUCGUACCAUAGAGAGGUUAUUCGAUCACCGAGAUCGGAAGAGCACACGU
B14: target 1 A9C,G12A (mixed)
RNA 1: CACCCGUGCAAAAAUGCAGGGGUCUAAAACUGAGCGGAUAACCUCUCUAUGG
RNA 2: GGGAAUGGAUCCACAUCUACGAAUUCGUACCAUAGAGAGAUUCUCCGCUCACCGAGAUCGGAAGAGCACACGU
B15: target 1 A9G,A16C (mixed)
RNA 1: CACCCGUGCAAAAAUGCAGGGGUCUAAAACUGAGCGGAUAACCUCUCUAUGG
RNA 2: GGGAAUGGAUCCACAUCUACGAAUUCGUACCAUAGCGAGGUUGUCCGCUCACCGAGAUCGGAAGAGCACACGU
B16: target 1 complement block 5-13 (mixed)
RNA 1: CACCCGUGCAAAAAUGCAGGGGUCUAAAACUGAGCGGAUAACCUCUCUAUGG
RNA 2: GGGAAUGGAUCCACAUCUACGAAUUCGUACCAUAGAGACCAAUAGGCCUCACCGAGAUCGGAAGAGCACACGU
B17: target 1 insG 3' of 18,insG 3' of 16 (mixed)
RNA 1: CACCCGUGCAAAAAUGCAGGGGUCUAAAACUGAGCGGAUAACCUCUCUAUGG
RNA 2: GGGAAUGGAUCCACAUCUACGAAUUCGUACCAUAGGAGGAGGUUAUCCGCUCACCGAGAUCGGAAGAGCACACGU
B18: target 1 insA 3' of 17,insA 3' of 11 (mixed)
RNA 1: CACCCGUGCAAAAAUGCAGGGGUCUAAAACUGAGCGGAUAACCUCUCUAUGG
RNA 2: GGGAAUGGAUCCACAUCUACGAAUUCGUACCAUAGAAGAGGUAUAUCCGCUCACCGAGAUCGGAAGAGCACACGU
B19: target 1 insC 3' of 15,insU 3' of 9 (mixed)
RNA 1: CACCCGUGCAAAAAUGCAGGGGUCUAAAACUGAGCGGAUAACCUCUCUAUGG
RNA 2: GGGAAUGGAUCCACAUCUACGAAUUCGUACCAUAGAGCAGGUUAUUCCGCUCACCGAGAUCGGAAGAGCACACGU
B20: target 1 insC 3' of 17,insG 3' of 2 (mixed)
RNA 1: CACCCGUGCAAAAAUGCAGGGGUCUAAAACUGAGCGGAUAACCUCUCUAUGG
RNA 2: GGGAAUGGAUCCACAUCUACGAAUUCGUACCAUAGCAGAGGUUAUCCGCUCGACCGAGAUCGGAAGAGCACACGU
B21: target 1 insU 3' of 6,insU 3' of 6 (mixed)
RNA 1: CACCCGUGCAAAAAUGCAGGGGUCUAAAACUGAGCGGAUAACCUCUCUAUGG
RNA 2: GGGAAUGGAUCCACAUCUACGAAUUCGUACCAUAGAGAGGUUAUCCUUGCUCACCGAGAUCGGAAGAGCACACGU
B22: target 1 insG 3' of 7,insG 3' of 7 (mixed)
RNA 1: CACCCGUGCAAAAAUGCAGGGGUCUAAAACUGAGCGGAUAACCUCUCUAUGG
RNA 2: GGGAAUGGAUCCACAUCUACGAAUUCGUACCAUAGAGAGGUUAUCGGCGCUCACCGAGAUCGGAAGAGCACACGU
B23: target 1 insU 3' of 18,insC 3' of 8 (mixed)
RNA 1: CACCCGUGCAAAAAUGCAGGGGUCUAAAACUGAGCGGAUAACCUCUCUAUGG
RNA 2: GGGAAUGGAUCCACAUCUACGAAUUCGUACCAUAUGAGAGGUUAUCCCGCUCACCGAGAUCGGAAGAGCACACGU
B24: target 1 U11G,C21A (mixed)
RNA 1: CACCCGUGCAAAAAUGCAGGGGUCUAAAACUGAGCGGAUAACCUCUCUAUGG
RNA 2: GGGAAUGGAUCCACAUCUACGAAUUCGUACAAUAGAGAGGGUAUCCGCUCACCGAGAUCGGAAGAGCACACGU
B25: target 1 C7G,A20C (mixed)
RNA 1: CACCCGUGCAAAAAUGCAGGGGUCUAAAACUGAGCGGAUAACCUCUCUAUGG
RNA 2: GGGAAUGGAUCCACAUCUACGAAUUCGUACCCUAGAGAGGUUAUGCGCUCACCGAGAUCGGAAGAGCACACGU
B26: target 1 C7G,A20U (mixed)
RNA 1: CACCCGUGCAAAAAUGCAGGGGUCUAAAACUGAGCGGAUAACCUCUCUAUGG
RNA 2: GGGAAUGGAUCCACAUCUACGAAUUCGUACCUUAGAGAGGUUAUGCGCUCACCGAGAUCGGAAGAGCACACGU
B27: target 1 insU 3' of 14,insU 3' of 6 (mixed)
RNA 1: CACCCGUGCAAAAAUGCAGGGGUCUAAAACUGAGCGGAUAACCUCUCUAUGG
RNA 2: GGGAAUGGAUCCACAUCUACGAAUUCGUACCAUAGAGAUGGUUAUCCUGCUCACCGAGAUCGGAAGAGCACACGU

The target of this series is T1, EsCas13d, nuclease-dead. The series is described as follows: crRNA (strand 1, pre-loaded); Mg2+; 40 mM Tris-HCl pH 7.5, 150 mM NaCl, 6 mM MgCl2, 1 mM DTT, 0.1% Tween-20, 0.2 mg/ml BSA; 25 C; 10 min per concentration, then washed. The conditions noted are these: tags: His6-TwinStrep-SUMO cleaved; N-terminal SNAP kept (SNAP-Surface 488); label: 3' end held by stalled T7 RNA polymerase.
For orientation: Kd means the free concentration of one partner at which half of the binding sites on the other are occupied at equilibrium, for simple one-to-one binding. A lower Kd goes with a tighter complex. B1 registered an equilibrium dissociation constant (Kd) of 8.4 ± 0.4 nM.

B2 registered a Kd of 46 ± 3 nM.

As to B3, the Kd was found to be 50 ± 16 nM.

In turn, B4 registered a Kd of 12.4 ± 0.7 nM.

B5 displayed a Kd of 45 ± 6 nM.

For the molecule B6, the Kd was determined as 13.9 ± 0.6 nM.

In the case of B7, the dissociation constant (Kd) is 14.5 ± 0.5 nM.

B8 came in with a Kd of 8.6 ± 0.5 nM.

With B9, binding was characterised by a dissociation constant (Kd) of 63 ± 27 nM.

In turn, B10 had an equilibrium dissociation constant (Kd) of 8.9 ± 0.5 nM.

As to B11, the Kd was 25.7 ± 2 nM.

As to B12, binding was characterised by a dissociation constant (Kd) of 20.5 ± 1.2 nM.

In turn, B13 had a dissociation constant (Kd) of 3.39 ± 0.26 nM.

Regarding B14, the dissociation constant Kd came to 16.6 ± 1.9 nM.

Molecule B15 had a Kd of 36.4 ± 1.8 nM.

Regarding B16, the equilibrium dissociation constant (Kd) is about 80 nM.

B17: binding was characterised by a dissociation constant (Kd) of 55 ± 9 nM.

For the molecule B18, the Kd amounted to 24.5 ± 1.7 nM.

Turning to B19, binding was characterised by a dissociation constant (Kd) of 14.4 ± 0.8 nM.

The molecule B20 came in with a Kd of about 38 nM.

For the molecule B21, the dissociation constant Kd came out at 11.7 ± 0.7 nM.

Turning to B22, the affinity, expressed as Kd, was 9.8 ± 0.5 nM.

The molecule B23 registered a Kd of 53 ± 4 nM.

Consider B24, for which the Kd is 64 ± 12 nM.

Take B25: the dissociation constant Kd was determined as 86 ± 30 nM.

For the molecule B26, the affinity, expressed as Kd, was 47 ± 6 nM.

On to B27, for which the Kd worked out at 61 ± 8 nM.
